Experimental data published in PMC3001066 (Nucleic Acids Research, 2010).

Molecular target: full-length hAPE1 (human apurinic/apyrimidinic endonuclease 1), recombinant, as immobilised for SPR (human, UniProt P27695 1-318)
Assay: SPR

Chain of full-length hAPE1 (human apurinic/apyrimidinic endonuclease 1), recombinant, as immobilised for SPR (P27695 whole entry): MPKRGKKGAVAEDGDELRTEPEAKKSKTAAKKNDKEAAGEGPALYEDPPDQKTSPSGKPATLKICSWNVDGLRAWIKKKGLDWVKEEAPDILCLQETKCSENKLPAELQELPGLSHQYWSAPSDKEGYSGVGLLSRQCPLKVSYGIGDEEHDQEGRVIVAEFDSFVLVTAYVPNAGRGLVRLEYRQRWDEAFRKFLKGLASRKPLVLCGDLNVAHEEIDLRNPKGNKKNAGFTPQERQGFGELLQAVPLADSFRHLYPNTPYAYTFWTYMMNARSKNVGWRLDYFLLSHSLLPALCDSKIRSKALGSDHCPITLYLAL

Kd: 668 ± 5 nM
B1: N-terminal domain of NPM1 (residues 1-117) (domain or fragment, UniProt P06748 1-117, looked up)
chain: MEDSMDMDMSPLRPQNYLFGCELKADKDYHFKVDNDENEHQLSLRTVSLGAGAKDELHIVEAEAMNYEGSPIKVTLATLKMSVQPTVSLGGFEITPPVVLRLKCGSGPVHISGQHLV
